Experimental data taken from patent publication CN113683688A.

Biological target: HIV-1 P24重组蛋白 (原核细胞大肠杆菌表达的HIV-1 P24全长蛋白) (HIV-1) (UniProt P04591)
Assay: indirect ELISA, serial two-fold dilution of the antibody

B1: 抗HIV-1 P24兔单克隆抗体OTIR5D12 (antibody, V domains shown)
VH: QSLEESGGRLVTPGTPLTLTCTASGFSLNSYYMTWVRQAPGKGLEWIGILDTSGSTDYASWAKGRFTISKTSTTVDLKVTSPTAADTATYFCARGAYYSAYGDAWGQGTLVTVSS
VL: AQVLTQTPSPVSAVLGGTVTINCQSSQSVYNSNWLSWFQQKPGQPPKLLIYKASNLASGVPSRFKGSGSGTQFTLTISSVQCDDAATYYCQGGYNNGDGFGGGTEVVVK
效价 (antibody titer): 6.6e+06
